Measurements published in the supplement of paper PMC12667976.
± gives the standard error.

B1: library; numbered along this chain (parent)
chain: MATDAALRRLLRLHRTEIAVAVDSAFPLLHALADHDVVPEDKFQETLHLKEKEGCPQAFHALLSWLLTQDSTAILDFWRVLFKDYNLERYGRLQPILDSFPKDVDLSQPRKGRKPPAVPKALVPPPRLPTKRKASEEARAAAPAALTPRGTASPGSQLKAKPPKKPESSAEQQRLPLGNGIQTMSASVQRAVAMSSGDVPGARGAVEGILIQQVFESGGSKKCIQVGGEFYTPSKFEDSGSGKNKARSSSGPKPLVRAKGAQGAAPGGGEARLGQQGSVPAPLALPSDPQLHQKNEDECAVCRDGGELICCDGCPRAFHLACLSPPLREIPSGTWRCSSCLQATVQEVQPRAEEPRPQEPPVETPLPPGLRSAGEEVRGPPGEPLAGMDTTLVYKHLPAPPSAAPLPGLDSSALHPLLCVGPEGQQNLAPGARCGVCGDGTDVLRCTHCAAAFHWRCHFPAGTSRPGTGLRCRSCSGDVTPAPVEGVLAPSPARLAPGPAKDDTASHEPALHRDDLESLLSEHTFDGILQWAIQSMARPAAPFPS

Variants of: B1
Assay: AIRE transcriptional activation functional score (insulin promoter-GFP; nonsense median 0, synonymous median 1) (normalised score); higher = higher AIRE activity (more reporter activation)
Settings: with insulin promoter-GFP reporter in HEK293
Procedure: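 Deep mutational scan of full-length human AIRE (codon-optimized cDNA, DT-POPCode NNN libraries over three regions) integrated at a Bxb1 landing pad in HEK293 cells carrying an insulin core promoter-GFP reporter at a Flp-In site. Cells were sorted for the top 10% GFP about 14 days after transfection. Variant frequency log-ratios (select vs non-select, TileSeq) were rescaled so that the nonsense median is 0 and the synonymous median is 1, then averaged over biological replicates.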

| Variant | AIRE transcriptional activation functional score |
| --- | --- |
| R247V | 1.16 ± 0.41 |
| A450K | -0.531 ± 0.21 |
| A493W | 0.996 ± 0.11 |
| P200Q | 1.18 ± 0.25 |
| E136W | 1 ± 0.072 |
| Q293V | 0.932 ± 0.26 |
| A31H | -0.698 ± 0.13 |
| E307M | 0.227 ± 0.14 |
| E88L | 0.861 ± 0.31 |
| K164N | 1.52 ± 0.46 |
| K164T | 0.821 ± 0.83 |
| L327Q | 1.33 ± 0.21 |
| L158I | 0.959 ± 0.38 |
| F459Q | 1.14 ± 0.034 |
| F459W | 0.395 ± 0.083 |
| C322A | 1.16 ± 0.17 |
| L128E | 0.0699 ± 0.22 |
| L128V | 1.12 ± 0.24 |
| L128N | 1.02 ± 0.23 |
| P400V | 0.815 ± 0.2 |
| P143C | 0.956 ± 0.2 |
| L323K | 1.19 ± 0.27 |
| G274Q | 0.131 ± 0.15 |
| G274I | 0.929 ± 0.32 |

| Variant | AIRE transcriptional activation functional score |
| --- | --- |
| F77Y | 0.195 ± 0.18 |
| F77Q | -0.44 ± 0.62 |
| C434S | 0.275 ± 0.14 |
| P481Y | 1.37 ± 0.058 |
| P481D | 1.21 ± 0.15 |
| G204L | 0.339 ± 0.34 |
| V80E | -0.149 ± 0.14 |
| S187C | 0.918 ± 0.059 |
| L97T | -0.118 ± 0.59 |
| A281N | 0.445 ± 0.21 |
| P499A | 1.22 ± 0.3 |
| P499Y | 1.13 ± 0.21 |
| Q108R | 0.951 ± 0.67 |
| A343V | 1.03 ± 0.1 |
| G227N | 0.587 ± 0.32 |
| S249C | 1.33 ± 0.2 |
| P380H | 0.534 ± 0.15 |
| R190V | 0.094 ± 0.21 |
| R190D | 0.292 ± 0.32 |
| D304H | 1.13 ± 0.042 |
| V301R | 1.34 ± 0.22 |
| E270I | 0.55 ± 0.37 |
| K102V | 0.889 ± 0.42 |
| K102S | 0.749 ± 0.77 |

| Variant | AIRE transcriptional activation functional score |
| --- | --- |
| R9W | 0.515 ± 0.082 |
| C311V | 0.86 ± 0.2 |
| C311W | 0.678 ± 0.023 |
| V362C | 0.914 ± 0.096 |
| V362Y | 1.31 ± 0.2 |
| A191V | 0.157 ± 0.24 |
| G197C | 1.17 ± 0.069 |
| P252T | 0.961 ± 0.079 |
| T16K | -0.208 ± 0.32 |
| T16A | -0.419 ± 0.84 |
| T68S | 0.804 ± 0.35 |
| E517Y | 0.524 ± 0.051 |
| P361W | 1.29 ± 0.094 |
| G219M | 0.958 ± 0.043 |
| G219E | 0.654 ± 0.16 |
| K131N | 0.0453 ± 0.36 |
| P509C | 0.247 ± 0.038 |
| T232R | 1.18 ± 0.2 |
| L409C | 0.887 ± 0.15 |
| A170Q | 0.496 ± 1.3 |
| K243Q | 0.804 ± 0.042 |
| Q426P | 1.09 ± 0.091 |
| D36N | 1.07 ± 0.59 |
| I309P | 1.07 ± 0.11 |

| Variant | AIRE transcriptional activation functional score |
| --- | --- |
| L291F | 1.15 ± 0.22 |
| V479P | 0.967 ± 0.091 |
| A489M | 1.23 ± 0.08 |
| V226W | 1.21 ± 0.044 |
| I18T | -0.194 ± 0.67 |
| I18Q | -0.126 ± 0.07 |
| V345A | 0.719 ± 0.2 |
| V345S | 0.912 ± 0.16 |
| C437P | 0.172 ± 0.16 |
| L62P | -0.295 ± 0.47 |
| T151P | 1.01 ± 0.39 |
| Q342S | 1.13 ± 0.27 |
| Q342T | 0.546 ± 0.32 |
| P266L | 0.925 ± 0.17 |
| R356E | 1.09 ± 0.1 |
| R356T | 0.752 ± 0.28 |
| K222F | -0.315 ± 0.37 |
| K222Y | -1.15 ± 0.93 |
| L516H | 0.715 ± 0.16 |
| S411Q | 0.0682 ± 0.27 |
| G382F | 1.11 ± 0.087 |
| G382D | 0.898 ± 0.093 |
| R149A | 1.19 ± 0.18 |
| L10I | 0.238 ± 0.76 |

| Variant | AIRE transcriptional activation functional score |
| --- | --- |
| P119A | 1.03 ± 0.56 |
| Q182G | 0.423 ± 0.34 |
| G469I | 0.951 ± 0.33 |
| S241N | 1.13 ± 0.16 |
| R12T | -0.393 ± 0.21 |
| S239R | 1.13 ± 0.21 |
| R433I | 0.308 ± 0.067 |
| L13M | 1.23 ± 0.27 |
| L87G | 0.476 ± 2.1 |
| S107D | 0.707 ± 0.52 |
| G180D | 0.474 ± 0.23 |
| A532T | 1.21 ± 0.1 |
| P27H | 0.254 ± 0.38 |
| D23G | 0.031 ± 0.52 |
| L414T | 1.14 ± 0.16 |
| Q44P | -0.185 ± 0.28 |
| I528Y | 0.65 ± 0.036 |
| T364K | 0.737 ± 0.18 |
| V214F | 1.01 ± 0.2 |
| Y231G | 0.475 ± 0.11 |
| E347N | 0.719 ± 0.25 |
| P544Q | 0.746 ± 0.033 |
| G218E | -0.051 ± 0.083 |
| V104N | -0.244 ± 0.28 |

| Variant | AIRE transcriptional activation functional score |
| --- | --- |
| V104K | -0.552 ± 0.34 |
| K294V | 0.546 ± 0.13 |
| E53G | -0.0905 ± 0.58 |
| K395D | 0.353 ± 0.32 |
| D70S | 2.47 ± 0.55 |
| A121I | 0.906 ± 0.4 |
| H14D | -0.577 ± 0.094 |
| L320M | 1.03 ± 0.026 |
| G208Q | 1.23 ± 0.12 |
| G277Y | 0.553 ± 0.1 |
| S156E | 0.377 ± 0.46 |
| A246I | 0.408 ± 0.11 |
| V393G | 1.28 ± 0.04 |
| S71V | 0.229 ± 0.31 |
| S71F | 0.353 ± 0.15 |
| N86C | 0.345 ± 0.37 |
| A140G | 1.12 ± 0.45 |
| A140R | 1.14 ± 0.49 |
| G424Y | 0.738 ± 0.57 |
| F43C | 0.163 ± 0.23 |
| C310D | 0.991 ± 0.16 |
| F525P | 0.141 ± 0.13 |
| P315R | 0.972 ± 0.26 |
| S99L | 0.541 ± 0.5 |

| Variant | AIRE transcriptional activation functional score |
| --- | --- |
| L385R | 0.699 ± 0.49 |
| L285N | 0.918 ± 0.047 |
| G333F | 1.02 ± 0.16 |
| N295Y | 1.08 ± 0.14 |
| A284F | 1.2 ± 0.18 |
| W455N | 1.34 ± 0.048 |
| L7T | 1.26 ± 0.37 |
| Q189Y | 0.0452 ± 0.053 |
| P384Q | 1.01 ± 0.083 |
| P56R | 0.352 ± 0.45 |
| H448W | 0.403 ± 0.12 |
| P109M | 2.55 ± 0.077 |
| A61T | 0.573 ± 0.52 |
| A61L | -0.166 ± 0.57 |
| T46L | -0.561 ± 0.72 |
| A145T | 1.21 ± 0.8 |
| E329N | 1.33 ± 0.079 |
| K42C | -0.000636 ± 0.22 |
| K42A | -0.323 ± 0.43 |
| K42Q | 0.53 ± 0.32 |
| A505V | 0.997 ± 0.18 |
| S476K | 0.603 ± 0.21 |
| E45V | 0.134 ± 0.25 |
